Source: publication PMC10244618
Where “and” joins values, the source holds several entries; their conditions need not be identical. Equal values may be shown once.

B1: NF2 (merlin) isoform 7, human, full length (507 aa, lacks exons 2-3 = isoform-1 residues 39-121; exon-16 C-terminus), P35240-4 (parent)
chain: MAGAIASRMSFSSLKRKQPKTFTVRIVTMDAEMEFNCEVKKQILDEKIYCPPEASVLLASYAVQAKYGDYDPSVHKRGFLAQEELLPKRVINLYQMTPEMWEERITAWYAEHRGRARDEAEMEYLKIAQDLEMYGVNYFAIRNKKGTELLLGVDALGLHIYDPENRLTPKISFPWNEIRNISYSDKEFTIKPLDKKIDVFKFNSSKLRVNKLILQLCIGNHDLFMRRRKADSLEVQQMKAQAREEKARKQMERQRLAREKQMREEAERTRDELERRLLQMKEEATMANEALMRSEETADLLAEKAQITEEEAKLLAQKAAEAEQEMQRIKATAIRTEEEKRLMEQKVLEAEVLALKMAEESERRAKEADQLKQDLQEAREAERRAKQKLLEIATKPTYPPMNPIPAPLPPDIPSFNLIGDSLSFDFKDTDMKRLSMEIEKEKVEYMEKSKHLQEQLNELKTEIEALKLKERETALDILHNENSDRGGSSKHNTIKKPQAQGRRPICI

Variants of: B1
Experiment: reverse yeast two-hybrid deep mutational scan (rY2H-seq): NF2 isoform 7 mutant library as bait mated with wild-type prey strains; selection on medium lacking adenine for non-interacting pairs; NextSeq paired-end sequencing; enrichment vs …
Conditions: with KDM1A (lysine-specific histone demethylase 1A; the table's label AOF2 is a gene synonym of KDM1A), O60341; yeast diploids after mating (RBait_S3 x RPrey_S3), 30 °C, selection for reporter genes on NB agar; human ABL2 co-expressed as the kinase-dead K35M mutant …; HIGHER = WEAKER BINDING (the opposite of display enrichments): higher = stronger loss of interaction: reverse Y2H selects yeast in which bait and prey do NOT interact (growth without adenine), so a …; hits-only table; scale: rY2H score; numbering: uniprot, sequence starts at 1

Variant	enrichment
E337L	1.6
E295K	1.91
E282K	1.54
S361A	5
Q370A	1.45 and 2.01
M262I	1.81
K313L	2.56
W175C	2.59
L300P	4.3
L434R	1.73
L315S	4.11
P407T	2.05
A290V	1.65
D374T	7.88 and 2.96
R384E	2.89
K15E	3.69
N482T	2.3
A354L	3.5
R379C	2
E362L	2.21
P410R	1.58
A59S	4.04
E34A	1.5
E187K	1.65
T336L	2.98
M238I	2.35
L315P	2.33

Same assay, conditions: with NF2 C-terminal domain (wild type; homomeric NF2-NF2 interaction), P35240; yeast diploids after mating (RBait_S3 x RPrey_S3), 30 °C, selection for reporter genes on NB agar; human ABL2 co-expressed as the kinase-dead K35M mutant …; HIGHER = WEAKER BINDING (the opposite of display enrichments): higher = stronger loss of interaction: reverse Y2H selects yeast in which bait and prey do NOT interact (growth without adenine), so a …; hits-only table; partner unresolved; scale: rY2H score; numbering: uniprot, sequence starts at 1

Variant	enrichment
E295K	2.66
K313L	2.4
L434R	1.58
D374T	3.23
N482T	2.43
I105C	1.42 and 1.58
M262D	6.41
M133E	2.45
N143M	1.65 and 1.37
P163E	2.31

Same assay, conditions: with KDM1A (lysine-specific histone demethylase 1A; the table's label AOF2 is a gene synonym of KDM1A), O60341; yeast diploids after mating (RBait_S3 x RPrey_S3), 30 °C, selection for reporter genes on NB agar; human tyrosine kinase ABL2 co-expressed as the active kinase …; HIGHER = WEAKER BINDING (the opposite of display enrichments): higher = stronger loss of interaction: reverse Y2H selects yeast in which bait and prey do NOT interact (growth without adenine), so a …; hits-only table; scale: rY2H score; numbering: uniprot, sequence starts at 1

Variant	enrichment
S361A	2.29 and 3.4
L434R	1.37
A354L	3.78
R379C	2.04
I404D	7.96
R253Q	1.48
R364A	4.28 and 3.15
I329A	1.81
M96V	1.61
I418A	1.5
F200S	3.89
Q64P	6.87
R341A	8.79
K304A	3.58
Q306H	1.79
E349P	2.41
E245Y	1.47
E38K	1.85
R335L	3.71
V56L	1.8
A54V	3.45
A59V	1.61
N402E	1.73
D411A	2.4 and 1.53
M225K	43
I105C	1.42

Variant	enrichment
K126E	22.9
M262D	5.37
L57A	3.5
P396S	1.47
S55F	3.58
K356A	2
L355P	1.79
P407A	2.33
Q82D	1.58
D198G	2.28
N137R	2.21
T397I	4.78
M401K	1.99 and 1.77
R328L	2.21
I127E	11.8
E148A	1.62 and 1.74
H221Y	2.24
M133E	21.9
Q64K	2.38
N143M	2.18
A65V	1.9
P163E	4.05
K304P	1.4
R335S	1.9
D130A	1.54

Same assay, conditions: with PIK3R3 (phosphatidylinositol 3-kinase regulatory subunit gamma), Q92569; yeast diploids after mating (RBait_S3 x RPrey_S3), 30 °C, selection for reporter genes on NB agar; human tyrosine kinase ABL2 co-expressed as the active kinase …; HIGHER = WEAKER BINDING (the opposite of display enrichments): higher = stronger loss of interaction: reverse Y2H selects yeast in which bait and prey do NOT interact (growth without adenine), so a …; hits-only table; scale: rY2H score; numbering: uniprot, sequence starts at 1

Variant	enrichment
P407T	2.62
A290V	2.94
M238I	2.66
R253Q	1.57
R364A	2.87
I329A	1.64
V56L	1.92
A59V	2.52
N402E	1.42
M262D	15.7
N137R	2.63
M401K	2.17
